US20140127814

Key:
[1] = tested on: CCR5 4-finger ZFN-L (ZFP-FokI) (artificial); experiment: cell_activity; settings: with ZFN-R and WT CFTR donor in CCR5-expressing HEK293 Flp-In; 17% with CFTR delta508F donor; NHEJ deletions at endogenous CCR5
[2] = tested on: CCR5 4-finger ZFN-R (ZFP-FokI) (artificial); experiment: cell_activity; settings: with ZFN-L and WT CFTR donor in CCR5-expressing HEK293 Flp-In; 17% with CFTR delta508F donor; NHEJ deletions at endogenous CCR5

Sequence: GTCATCCTCATC (double strand) [CCR5 ZFN-L half-site]
- activity (% CCR5-negative cells) [1]: 23

Sequence: AAACTGCAAAAG (double strand) [CCR5 ZFN-R half-site]
- activity (% CCR5-negative cells) [2]: 23
